For orientation: Kd means a measure of binding affinity in units of concentration.

One experiment has as its target T1, ADI-26913 Fab.
T1 construct: anti-CD3 Fab by papain digestion of the IgG
Put plainly: BLI; tip ADI-34145 IgG, solution anti-CD3 Fab. Here is the method:
(§1) ForteBio affinity measurements were performed generally as previously described (Estep et al., MAbs. 2013 5(2):270-8). Briefly, ForteBio affinity measurements were performed by loading antibody IgG or Fabs on-line onto AHC sensors. Sensors were equilibrated off-line in assay buffer for 30 minutes and then monitored on-line for 60 seconds for baseline establishment. For avid binding measurement, sensors with loaded antibodies were exposed to IgG or Fab solutions for 3 minutes, afterwards they were transferred to assay buffer for 3 minutes for off-rate measurement. Kinetics data were fit using a 1:1 binding model in the data analysis software provided by ForteBio to obtain equilibrium dissociation constant (KD=koff/kₒₙ) values. In each column, tip-immobilized antibodies are listed first and solution antibodies second.
(§2) In each column, tip-immobilized antibodies are listed first and solution antibodies second.

In a further experiment the target is T2, ADI-22523 Fab.
T2 construct: anti-CD3 Fab by papain digestion of the IgG
T2 sequence (VH, as listed by the source limits assumed, chain 1 of 2): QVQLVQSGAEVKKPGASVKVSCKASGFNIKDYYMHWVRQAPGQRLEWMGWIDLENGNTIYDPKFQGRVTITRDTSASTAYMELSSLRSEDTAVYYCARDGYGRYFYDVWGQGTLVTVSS
T2 sequence (VL, as listed by the source limits assumed, chain 2 of 2): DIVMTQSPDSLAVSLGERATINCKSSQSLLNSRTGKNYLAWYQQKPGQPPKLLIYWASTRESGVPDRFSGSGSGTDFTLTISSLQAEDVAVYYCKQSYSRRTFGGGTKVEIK
The experiment can be described thus: BLI; tip ADI-34145 IgG, solution anti-CD3 Fab. As to the method: as §1, §2

The next experiment addresses T3, ADI-26954 Fab.
T3 construct: anti-CD3 Fab by papain digestion of the IgG
The experiment can be described thus: BLI; tip ADI-34145 IgG, solution anti-CD3 Fab. Here is the method:
as §1, §2
For orientation: In BLI a coated tip is dipped into the sample, and binding shifts an interference pattern.

For the next experiment, the target named is T4, ADI-26906 Fab.
T4 construct: anti-CD3 Fab by papain digestion of the IgG
T4 sequence (VH, as listed by the source limits assumed, chain 1 of 2): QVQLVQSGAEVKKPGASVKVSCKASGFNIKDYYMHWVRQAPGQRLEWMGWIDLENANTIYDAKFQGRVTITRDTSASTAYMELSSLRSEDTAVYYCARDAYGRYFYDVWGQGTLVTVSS
T4 sequence (VL, as listed by the source limits assumed, chain 2 of 2): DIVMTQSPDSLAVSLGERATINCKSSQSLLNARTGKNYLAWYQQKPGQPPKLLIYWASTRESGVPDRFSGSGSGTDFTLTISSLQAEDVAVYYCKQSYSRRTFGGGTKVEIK
The experiment can be described thus: BLI; tip ADI-34145 IgG, solution anti-CD3 Fab. Here is the method:
as §1, §2

The target of the next experiment is T5, CTL-62223.
T5 construct: also called mosunetuzumab
T5 sequence (VH, as listed by the source, chain 1 of 2): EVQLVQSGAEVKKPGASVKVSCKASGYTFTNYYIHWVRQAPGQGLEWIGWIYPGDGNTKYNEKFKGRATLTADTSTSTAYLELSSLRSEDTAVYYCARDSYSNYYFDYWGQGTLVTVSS
T5 sequence (VL, as listed by the source, chain 2 of 2): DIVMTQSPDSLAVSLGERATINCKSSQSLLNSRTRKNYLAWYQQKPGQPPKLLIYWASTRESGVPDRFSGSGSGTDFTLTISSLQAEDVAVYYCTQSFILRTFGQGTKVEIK
The experiment can be described thus: SPR Carterra, yeast anti-ID. In outline:
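Anti-human Fc capture chip (amine coupled); anti-CD3 IgG 100 nM, 5 min capture; 25° C, HBSTE. Non-regenerative kinetic cycles, anti-ID dissociation 300s; glycine pH 1.7 regeneration. Double-reference subtraction, 1:1 fit.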

For the next experiment, the target named is CTL-19613 IgG. The experiment can be described thus: BLI; tip ADI-34134 IgG, solution anti-CD3 IgG. As to the method:
as §1, §2

In a further experiment the target is T6, ADI-26906 IgG.
T6 construct: anti-CD3 IgG
The experiment can be described thus: BLI; tip ADI-34134 IgG, solution anti-CD3 IgG. As to the method:
as §1, §2

The target of another experiment is T7, ADI-26913 IgG.
T7 construct: anti-CD3 IgG
T7 sequence (VH, as listed by the source limits assumed, chain 1 of 2): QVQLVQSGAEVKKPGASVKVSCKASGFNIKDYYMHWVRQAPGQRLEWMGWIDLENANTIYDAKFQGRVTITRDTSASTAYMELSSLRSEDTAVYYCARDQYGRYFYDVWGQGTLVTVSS
The experiment can be described thus: BLI; tip ADI-34134 IgG, solution anti-CD3 IgG. As to the method: as §1, §2

Another experiment deals with T8, ADI-26928 IgG.
T8 construct: anti-CD3 IgG
T8 sequence (VH, as listed by the source limits assumed, chain 1 of 2): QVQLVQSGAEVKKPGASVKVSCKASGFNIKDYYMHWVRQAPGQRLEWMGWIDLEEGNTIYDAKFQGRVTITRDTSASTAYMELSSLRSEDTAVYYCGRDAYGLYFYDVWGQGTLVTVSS
T8 sequence (VL, as listed by the source limits assumed, chain 2 of 2): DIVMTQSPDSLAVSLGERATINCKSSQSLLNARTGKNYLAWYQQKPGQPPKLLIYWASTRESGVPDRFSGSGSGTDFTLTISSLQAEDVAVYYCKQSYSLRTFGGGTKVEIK
Put plainly: BLI; tip ADI-34134 IgG, solution anti-CD3 IgG. Here is the method: as §1, §2

The next experiment concerns the target T9, ADI-26941 IgG.
T9 construct: anti-CD3 IgG
The experiment can be described thus: BLI; tip ADI-34134 IgG, solution anti-CD3 IgG. Here is the method:
as §1, §2

A further experiment concerns the target T10, ADI-26921 IgG.
T10 construct: anti-CD3 IgG
The experiment can be described thus: BLI; tip ADI-34134 IgG, solution anti-CD3 IgG. Here is the method:
as §1, §2

The target in a further experiment is T11, ADI-22523 IgG.
T11 construct: anti-CD3 IgG
The experiment can be described thus: BLI; tip ADI-34134 IgG, solution anti-CD3 IgG. As to the method:
as §1, §2

A further experiment concerns the target T12, ADI-26954 IgG.
T12 construct: anti-CD3 IgG
Put plainly: BLI; tip ADI-34134 IgG, solution anti-CD3 IgG. As to the method: as §1, §2

The target of the next experiment is T13, ADI-26916 IgG.
T13 construct: anti-CD3 IgG
T13 sequence (VH, as listed by the source, chain 1 of 2): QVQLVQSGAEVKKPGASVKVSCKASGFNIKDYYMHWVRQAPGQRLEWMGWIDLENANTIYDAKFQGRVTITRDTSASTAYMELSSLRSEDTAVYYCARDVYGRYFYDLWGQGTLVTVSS
Put plainly: BLI; tip ADI-34134 IgG, solution anti-CD3 IgG. As to the method: as §1, §2

The target in another experiment is T14, ADI-26927 IgG.
T14 construct: anti-CD3 IgG
T14 sequence (VH, as listed by the source limits assumed, chain 1 of 2): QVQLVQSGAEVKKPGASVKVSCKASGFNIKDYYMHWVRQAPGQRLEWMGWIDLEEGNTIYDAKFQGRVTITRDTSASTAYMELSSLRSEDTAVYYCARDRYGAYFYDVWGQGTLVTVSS
The experiment can be described thus: BLI; tip ADI-34134 IgG, solution anti-CD3 IgG. As to the method:
as §1, §2

T10 sequence (VH, as listed by the source limits assumed, chain 1 of 2): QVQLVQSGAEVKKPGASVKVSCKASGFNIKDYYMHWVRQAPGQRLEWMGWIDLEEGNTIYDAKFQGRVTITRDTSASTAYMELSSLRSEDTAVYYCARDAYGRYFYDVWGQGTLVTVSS
T9 sequence (VH, as listed by the source limits assumed, chain 1 of 2): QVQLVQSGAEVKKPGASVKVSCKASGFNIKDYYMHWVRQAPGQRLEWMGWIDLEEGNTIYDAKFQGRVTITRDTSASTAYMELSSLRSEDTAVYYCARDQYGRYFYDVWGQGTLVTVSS
T9 sequence (VL, as listed by the source limits assumed, chain 2 of 2): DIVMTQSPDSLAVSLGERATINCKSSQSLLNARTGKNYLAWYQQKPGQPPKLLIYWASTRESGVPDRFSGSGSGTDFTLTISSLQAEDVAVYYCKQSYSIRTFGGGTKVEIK
T3 sequence (VH, as listed by the source limits assumed, chain 1 of 2): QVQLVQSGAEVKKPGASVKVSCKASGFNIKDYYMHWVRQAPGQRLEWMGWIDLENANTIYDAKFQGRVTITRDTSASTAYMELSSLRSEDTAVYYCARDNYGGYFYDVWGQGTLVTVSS
T3 sequence (VL, as listed by the source limits assumed, chain 2 of 2): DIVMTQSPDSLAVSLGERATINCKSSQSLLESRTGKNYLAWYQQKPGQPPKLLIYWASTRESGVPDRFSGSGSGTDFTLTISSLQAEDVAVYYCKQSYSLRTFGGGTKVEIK

B1: ADI-34145 IgG (antibody, V domains shown)
VH: EVQLLESGGGLVQPGGSLRLSCAASGFTFSSYAMSWVRQAPGKGLEWVSTISGSGGSTYYADSVKGRFTISRDNSKNTLYLQMNSLRAEDTAVYYCARLGGRRGSGSSYYYYYGMDVWGQGTTVTVSS
VL: not shown
notes: anti-ID IgG
Take B1: the Kd with ADI-26913 Fab was found to be 7.52 nM; with ADI-22523 Fab it was 4.13 nM; in the experiment with ADI-26954 Fab it was 19.4 nM; in the experiment with ADI-26906 Fab it was 3.55 nM. Moreover, the binding result with CTL-62223 is on record as “no binding (tested: up to 200 nM)”.

B2: ADI-34134 IgG (antibody, V domains shown)
VH: QVQLVQSGAEVKKPGSSVKVSCKASGGTFSSYAISWVRQAPGQGLEWMGGIIPIFGTANYAQKFQGRVTITADESTSTAYMELSSLRSEDTAVYYCARGAPNYYGSGGYDDGWFDPWGQGTLVTVSS
VL: EIVLTQSPGTLSLSPGERATLSCRASQSVSSDYLAWYQQKPGQAPRLLIYGASSRATGIPDRFSGSGSGTDFTLTISRLEPEDFAVYYCQQFGRVPTFGGGTKVEIK
As to B2, the Kd in the experiment with CTL-19613 IgG was 9.21 nM; with ADI-26906 IgG, 0.43 nM; with ADI-26913 IgG, 0.77 nM; with ADI-26928 IgG, 0.46 nM; with ADI-26941 IgG, 1.13 nM; with ADI-26921 IgG, 0.85 nM. Moreover, the Kd with ADI-22523 IgG worked out at 0.46 nM; with ADI-26954 IgG, 1.04 nM; with ADI-26916 IgG it was 0.57 nM; with ADI-26927 IgG it was 0.45 nM.

These data come from patent US20250019439A1 (Adimab, published 2025).
